The supplement of paper PMC10567573

B1: ETS1 (parent)
chain: YVRDRADLNKDKPVIPAAALAGYT
B2: TPRG1 (parent)
chain: ETIQGFWLLTKIDHWNNEKERILL

Variants of: B1
Experiment: protein stability index of a GFP-peptide fusion (GPS, HEK-293T) (PSI 1-6); higher = more stable
Details: c terminus: a fixed tail appended
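Also: lentivirally expressed fusions sorted by FACS into six bins by GFP to DsRed ratio, PSI derived from sequencing read proportions per bin multiplied by bin number.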

Protein stability index, by site and new letter:
D4: K 2.07, S 1.77, E 1.79, R 2.1, F 2.32, I 2.05, N 3.01, T 3.02, L 2.03, W 1.83, P 2.24, M 3.45, G 2.47, H 1.94, Y 3.23, Q 1.57, C 3.5, A 2.68
D7: V 3.53, W 2.52, Q 2.77, T 3.92, P 3.16, A 2.05, S 1.72, L 2.51, C 2.17, E 2.37, G 2.56, Y 2.37, K 2.99, N 2.98, M 2.6, I 3.04, F 2.17, H 2.91, R 3.02
N9: V 2.57, C 2.48, L 2.81, H 3.44, I 2.58, W 3.77, G 2.29, R 3.34, T 2.75, F 2.21, D 1.59, Y 2.84, K 2.31, S 1.77, M 1.96, A 2.17, E 1.98, Q 1.66, P 2.29
R5: E 2.36, P 1.72, G 2.24, Y 2.7, Q 1.57, M 1.56, L 1.82, N 1.94, C 2.36, F 3.08, V 1.44, W 2.48, I 3.08, H 1.95, D 2.14, K 2.11, A 2.12, T 2.02, S 2.23
K10: F 3.25, C 2.75, H 2.18, Y 1.97, W 2.19, S 1.59, D 2.58, E 1.88, G 2.97, I 2.23, P 2.6, R 2.24, Q 2.55, A 2.58, M 2.32, L 2.62, V 1.55, N 2.08, T 2.67
L8: H 2.29, T 2.44, M 2.9, A 2.17, Q 1.77, V 2.31, E 2.11, S 1.72, Y 2.9, R 1.88, N 2.53, D 1.67, G 2.12, K 2.19, C 1.96, W 2.23, P 1.87, I 2.64, F 2.72
A6: D 1.8, E 2.27, W 2.71, K 1.2, G 2.49, Q 2.35, T 1.88, H 1.87, V 2.29, M 3.35, S 2.05, C 2, Y 2.28, P 1.61, R 1.72, I 2.76, F 2.46, L 1.55, N 2.08
Y1: D 4.43, K 4.18, L 3.79, H 3.7, S 4.24, Q 4.41, I 3.73, E 4.38, V 3.65, A 4.46, W 3.77, T 4.03, M 3.85, N 4.3, F 2.22, G 4.02, R 3.88, P 3.92, C 3.31
D11: C 2.46, A 2.28
R3: Y 2.54, I 1.66, M 1.52, H 1.77, E 2.76, F 2.33, P 2.43, S 2.12, L 1.55, Q 2.08, N 2.43, C 1.75, K 2.56, V 1.55, W 1.68, A 2.24, D 2.88, G 2.08, T 2.3
V2: N 3.77, C 2.25, D 4.34, Y 3.5, P 3, E 4.25, I 2.17, T 3.5, W 3.19, R 3.79, F 2.88, H 2.46, M 3.81, K 3.61, A 4.01, L 3.69, G 3.53, S 3.76, Q 2.93

Variants of: B2
Experiment: as above
Details: c terminus: a fixed tail appended

Protein stability index, by site and new letter:
N17: K 3.22, I 2.46, A 2.33, S 2.2, F 2.36, M 3.42, V 3.23, C 2.54, Y 3.59, T 2.14, Q 4.24
E18: K 1.71, M 2.79, S 3.54, H 2.3, V 3.83, I 1.56, W 2.03, C 2.45, N 2.14, L 3.57, A 2.8
H14: L 2.25, S 2.41, C 1.39, V 3.16, R 4.13, F 2.41, E 2.51, W 2.98, G 1.34, M 2.37, D 2.88, I 2.49
N16: S 2.12, F 2.65, A 2.06, E 1.92, M 1.63, T 3.58, K 4.29, Q 1.77, I 3.07, P 2.99, G 1.75
K19: G 1.76, L 2.92, Q 1.52, C 2.12, V 1.62, W 2.92, I 2.47, P 2.82, R 4.12, T 1.78, E 1.69, Y 2.27, A 2.21, N 4.67
D13: F 2.23, V 2.29, T 1.69, Q 3.45, K 3.06, P 2.19, M 1.04, I 3.03, N 3.41, W 2.98, A 3.1
L23: Y 4.45, S 3.2, I 3.88, R 1.77, P 1.95, V 3.52, A 2.89, T 2.42, E 2.38, W 3.52, Q 1.78, M 3.45, K 1.23
I22: P 1.61, F 3.5, A 2.62, H 2.02, E 2.16, G 1.89, K 2.15, N 2.6, L 3.26, D 1.01, Y 1.63, Q 3.38, M 3.17, R 1.48, V 3.42
L24: K 2.24, P 2.8, N 3.07, M 2.21, G 4.41, Q 3.61, H 4.13, V 2.5, W 2.52, C 2.36
R21: P 2.58, C 3.09, I 2.51, E 3.83, H 2.66, K 1.66, D 1.3, T 2.79, Q 3.52, L 2.75, G 2.98
I12: S 2.09, N 2.83, R 1.75, T 1.58
E20: K 2.67, L 3.61, N 2.53, D 3.18, M 3.33, Q 2.27, A 3.4, P 2.37
W15: P 2.2, D 1.62, G 4.15, N 1.57, E 2.05, C 1.56, Q 2.09, R 3.5, I 1.74, K 2.04, H 2.16, V 2.49
